This is an account of results in PMC6000670 (2018).

For orientation: Kd means the concentration at which binding is half-saturated. Read a low Kd as a tighter complex.

The assay deals with Hsp90 (Saccharomyces cerevisiae, UniProt P02829). Put plainly: ITC. For orientation: ITC needs no label: the signal is the heat of the interaction.
Hsp90, sequence (P02829 whole entry): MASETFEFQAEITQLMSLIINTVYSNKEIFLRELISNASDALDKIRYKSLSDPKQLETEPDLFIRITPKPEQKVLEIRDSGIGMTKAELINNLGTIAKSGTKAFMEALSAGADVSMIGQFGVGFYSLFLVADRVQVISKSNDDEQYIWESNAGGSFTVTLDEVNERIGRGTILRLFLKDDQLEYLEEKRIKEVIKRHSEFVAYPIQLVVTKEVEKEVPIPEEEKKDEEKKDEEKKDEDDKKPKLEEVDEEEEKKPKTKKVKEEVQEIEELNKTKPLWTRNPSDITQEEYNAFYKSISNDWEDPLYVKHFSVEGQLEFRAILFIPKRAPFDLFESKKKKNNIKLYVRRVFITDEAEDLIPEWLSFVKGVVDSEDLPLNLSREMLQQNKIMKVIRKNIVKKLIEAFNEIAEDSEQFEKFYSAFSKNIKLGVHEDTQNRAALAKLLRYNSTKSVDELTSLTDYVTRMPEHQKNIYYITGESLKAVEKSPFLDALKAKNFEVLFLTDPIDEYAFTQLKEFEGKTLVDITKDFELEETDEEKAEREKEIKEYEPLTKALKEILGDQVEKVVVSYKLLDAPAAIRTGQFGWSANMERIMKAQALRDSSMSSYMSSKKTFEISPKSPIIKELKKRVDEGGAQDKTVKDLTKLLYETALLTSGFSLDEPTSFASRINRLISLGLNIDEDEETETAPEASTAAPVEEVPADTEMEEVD

B1: Sti1 (protein)
chain: MSLTADEYKQQGNAAFTAKDYDKAIELFTKAIEVSETPNHVLYSNRSACYTSLKKFSDALNDANECVKINPSWSKGYNRLGAAHLGLGDLDEAESNYKKALELDASNKAAKEGLDQVHRTQQARQAQPDLGLTQLFADPNLIENLKKNPKTSEMMKDPQLVAKLIGYKQNPQAIGQDLFTDPRLMTIMATLMGVDLNMDDINQSNSMPKEPETSKSTEQKKDAEPQSDSTTSKENSSKAPQKEESKESEPMEVDEDDSKIEADKEKAEGNKFYKARQFDEAIEHYNKAWELHKDITYLNNRAAAEYEKGEYETAISTLNDAVEQGREMRADYKVISKSFARIGNAYHKLGDLKKTIEYYQKSLTEHRTADILTKLRNAEKELKKAEAEAYVNPEKAEEARLEGKEYFTKSDWPNAVKAYTEMIKRAPEDARGYSNRAAALAKLMSFPEAIADCNKAIEKDPNFVRAYIRKATAQIAVKEYASALETLDAARTKDAEVNNGSSAREIDQLYYKASQQRFQPGTSNETPEETYQRAMKDPEVAAIMQDPVMQSILQQAQQNPAALQEHMKNPEVFKKIQTLIAAGIIRTGR
modifications: Hsp90 in complex with LA1011 (1 mM)
Turning to B1, the Kd amounted to 320 nM.
